Laboratory results published in patent publication US20250186597A1, “TARGETED IMMUNE ACTIVATION WITH IL-18 IMMUNOCYTOKINES” (BRIGHT PEAK THERAPEUTICS AG, priority 2023, published 2025).

target: human IL-18BP-His (human) (UniProt O95998); assay: AlphaLISA for free IL-18BP; test item titrated (x axis) and pre-incubated with human IL-18BP-His, unbound IL-18BP detected
Sequence (O95998 31-194): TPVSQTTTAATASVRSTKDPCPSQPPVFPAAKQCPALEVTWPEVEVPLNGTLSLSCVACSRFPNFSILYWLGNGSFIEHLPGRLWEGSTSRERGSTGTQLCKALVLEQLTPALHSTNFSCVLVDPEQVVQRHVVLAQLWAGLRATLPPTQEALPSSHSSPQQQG

| IC50 (read off the curve) | Substance |
| --- | --- |
| 0.1 nM | IL-18 polypeptide of SEQ ID NO: 31 (C38A, C76A, C127A) (from UniProt Q14116 37-193) (ligand) |
| 0.4 nM | native IL-18 wild-type (SEQ ID NO: 1) (from UniProt Q14116 37-193) (ligand) |

target: human IL-18BP-His (human) (UniProt O95998); assay: AlphaLISA detection of free IL-18BP after incubation with the IL-18 analyte

| Kd | Substance |
| --- | --- |
| 0.103 nM | IL-18 polypeptide of SEQ ID NO: 31 (C38A, C76A, C127A) (from UniProt Q14116 37-193) (ligand) |
| 0.411 nM | native IL-18 wild-type (SEQ ID NO: 1) (from UniProt Q14116 37-193) (ligand) |

target: human IL-18BP-His (human) (UniProt O95998); assay: AlphaLISA detection of free IL-18BP

| Substance | Kd |
| --- | --- |
| IL-18 polypeptide C146 (SEQ ID NO: 68; V11I, C38A, M51G, K53A, C76A, C127A) (from UniProt Q14116 37-193) (ligand) | 373 nM |
| IL-18 polypeptide C147 (V11I, C38A, K53A, D54A, C76A, C127A) (from UniProt Q14116 37-193) (ligand) | 25.8 nM |
| IL-18 polypeptide C148 (F2A, V11I, C38A, K53A, C76A, C127A) (from UniProt Q14116 37-193) (ligand) | 57.2 nM |
| IL-18 polypeptide C156 (V11I, C38A, N41A, K53A, C76A, C127A) (from UniProt Q14116 37-193) (ligand) | 18.5 nM |
| IL-18 polypeptide C157 (V11I, C38A, K53A, C76A, C127A, D132A) (from UniProt Q14116 37-193) (ligand) | 13.7 nM |
| IL-18 polypeptide C176 (E6K, V11I, C38A, I49M, K53A, T63A, C76A, C127A) (from UniProt Q14116 37-193) (ligand) | 25.8 nM |
| IL-18 polypeptide of SEQ ID NO: 35 (Y01G, F02A, E06K, M51G, K53A, D54A, S55A, T63A) (from UniProt Q14116 37-193) (ligand) | 969 nM |
| IL-18 polypeptide of SEQ ID NO: 36 (K53A) (from UniProt Q14116 37-193) (ligand) | 514 nM |
| IL-18 polypeptide of SEQ ID NO: 37 (S55A) (from UniProt Q14116 37-193) (ligand) | 10.7 nM |
| IL-18 polypeptide of SEQ ID NO: 39 (E06K, K53A) (from UniProt Q14116 37-193) (ligand) | 130 nM |
| IL-18 polypeptide of SEQ ID NO: 40 (E06K, S55A) (from UniProt Q14116 37-193) (ligand) | 12.3 nM |
| IL-18 polypeptide of SEQ ID NO: 41 (K53A, S55A) (from UniProt Q14116 37-193) (ligand) | 500 nM |
| IL-18 polypeptide of SEQ ID NO: 42 (E06K, K53A, S55A, T63A) (from UniProt Q14116 37-193) (ligand) | 822 nM |
| IL-18 polypeptide of SEQ ID NO: 50 (E06K, K53A, T63A) (from UniProt Q14116 37-193) (ligand) | 340 nM |
| IL-18 polypeptide of SEQ ID NO: 53 (K53A, T63A) (from UniProt Q14116 37-193) (ligand) | 198 nM |
| IL-18 polypeptide of SEQ ID NO: 54 (E06K, K53A, C38S, C68S, C76S, C127S, K70C) (from UniProt Q14116 37-193) (ligand) | 446 nM |
| IL-18 polypeptide of SEQ ID NO: 55 (K53A, T63A, C38S, C68S, C76S, C127S, K70C) (from UniProt Q14116 37-193) (ligand) | 913 nM |
| IL-18 polypeptide of SEQ ID NO: 56 (E6K, K53A, C38S, C76S, C127S) (from UniProt Q14116 37-193) (ligand) | 436 nM |
| IL-18 polypeptide of SEQ ID NO: 57 (E6K, C38S, K53A) (from UniProt Q14116 37-193) (ligand) | 50.2 nM |
| IL-18 polypeptide of SEQ ID NO: 59 (E6K, C38A, K53A) (from UniProt Q14116 37-193) (ligand) | 36 nM |
| IL-18 polypeptide of SEQ ID NO: 60 (E6K, C38Q, K53A) (from UniProt Q14116 37-193) (ligand) | 24.8 nM |
| IL-18 polypeptide of SEQ ID NO: 62 (E6K, C38A, K53A, C127A) (from UniProt Q14116 37-193) (ligand) | 69.6 nM |

More lines, now with the values ahead:

| Kd | Substance |
| --- | --- |
| 2.25 nM | IL-18 polypeptide C142 (Y1M, E6K, V11I, C38A, K53A, T63A, C76A, C127A) (from UniProt Q14116 38-193) (ligand) |
| 8.86 nM | IL-18 polypeptide C143 (V11I, C38A, K53A, C76A, C127A) (from UniProt Q14116 37-193) (ligand) |
| 0.66 nM | IL-18 polypeptide C144 (V11I, C38A, K53A, T63A, C76A, C127A) (from UniProt Q14116 37-193) (ligand) |
| 9.74 nM | IL-18 polypeptide C145 (V11I, C38A, K53A, S55A, C76A, C127A) (from UniProt Q14116 37-193) (ligand) |
| 0.64 nM | IL-18 polypeptide C149 (V11I, E31A, C38A, K53A, C76A, C127A) (from UniProt Q14116 37-193) (ligand) |
| 1.24 nM | IL-18 polypeptide C150 (V11I, T34A, C38A, K53A, C76A, C127A) (from UniProt Q14116 37-193) (ligand) |
| 2.88 nM | IL-18 polypeptide C151 (V11I, D35A, C38A, K53A, C76A, C127A) (from UniProt Q14116 37-193) (ligand) |
| 1.12 nM | IL-18 polypeptide C152 (V11I, S36A, C38A, K53A, C76A, C127A) (from UniProt Q14116 37-193) (ligand) |
| 4.55 nM | IL-18 polypeptide C153 (V11I, D37A, C38A, K53A, C76A, C127A) (from UniProt Q14116 37-193) (ligand) |
| 2.12 nM | IL-18 polypeptide C154 (V11I, E31A, D37A, C38A, K53A, C76A, C127A) (from UniProt Q14116 37-193) (ligand) |
| 0.74 nM | IL-18 polypeptide C155 (V11I, C38A, D40A, K53A, C76A, C127A) (from UniProt Q14116 37-193) (ligand) |
| 1.24 nM | IL-18 polypeptide C158 (V11I, C38A, K53A, C76A, G108A, C127A) (from UniProt Q14116 37-193) (ligand) |
| 0.55 nM | IL-18 polypeptide C159 (V11I, C38A, K53A, C76A, H109A, C127A) (from UniProt Q14116 37-193) (ligand) |
| 0.71 nM | IL-18 polypeptide C160 (V11I, C38A, K53A, C76A, D110A, C127A) (from UniProt Q14116 37-193) (ligand) |
| 0.06 nM | IL-18 polypeptide C161 (K8R, V11I, C38A, C76A, Q103E, C127A) (from UniProt Q14116 37-193) (ligand) |
| 0.85 nM | IL-18 polypeptide C162 (K8E, V11I, C38A, C76A, Q103R, C127A) (from UniProt Q14116 37-193) (ligand) |
| 0.05 nM | IL-18 polypeptide C163 (V11I, C38A, C76A, Q103K, C127A) (from UniProt Q14116 37-193) (ligand) |
| 0.08 nM | IL-18 polypeptide C164 (V11I, C38A, S55H, C76A, C127A) (from UniProt Q14116 37-193) (ligand) |
| 0.15 nM | IL-18 polypeptide C165 (V11I, C38A, S55R, C76A, C127A) (from UniProt Q14116 37-193) (ligand) |
| 0.02 nM | IL-18 polypeptide C166 (V11I, C38A, S55T, C76A, C127A) (from UniProt Q14116 37-193) (ligand) |
| 0.04 nM | IL-18 polypeptide C167 (V11I, C38A, C76A, S105I, C127A) (from UniProt Q14116 37-193) (ligand) |
| 0.05 nM | IL-18 polypeptide C168 (V11I, C38A, C76A, S105K, C127A) (from UniProt Q14116 37-193) (ligand) |
| 0.14 nM | IL-18 polypeptide C174 (K8L, E6K, V11I, C38A, K53A, T63A, C76A, C127A) (from UniProt Q14116 37-193) (ligand) |
| 5.46 nM | IL-18 polypeptide C184 (E6R, V11I, C38A, K53A, T63A, C76A, C127A) (from UniProt Q14116 37-193) (ligand) |
| 0.13 nM | IL-18 polypeptide of SEQ ID NO: 38 (E06K) (from UniProt Q14116 37-193) (ligand) |
| 0.03 nM | IL-18 polypeptide of SEQ ID NO: 47 (C38S, C68S, C76S, C127S) (from UniProt Q14116 37-193) (ligand) |
| 0.21 nM | IL-18 polypeptide of SEQ ID NO: 48 (C38S, C68S, C76S, C127S, K70C) (from UniProt Q14116 37-193) (ligand) |
| 2.59 nM | IL-18 polypeptide of SEQ ID NO: 51 (T63A) (from UniProt Q14116 37-193) (ligand) |
| 0.83 nM | IL-18 polypeptide of SEQ ID NO: 52 (E06K, T63A) (from UniProt Q14116 37-193) (ligand) |
| 0.67 nM | native IL-18 wild-type (SEQ ID NO: 1) (from UniProt Q14116 37-193) (ligand) |

target: native IL-18 wild-type (SEQ ID NO: 1) (human) (UniProt Q14116); assay: cell-based or functional assay

| IC50 of IL-18BP-mediated inhibition of IFNγ secretion, PD-1negative parental NK-92 cells | Substance |
| --- | --- |
| 2.97 nM | His-tag human IL-18 binding protein isoform a (IL-18BPa; SinoBiologicals #10357-H08H) (from UniProt O95998 31-194) |
